Source: publication PMC4225172

What was measured:
[1] = biological target: BoLA-3*00201 (JSP.1) heavy chain folded with 125I-radiolabeled bovine met-β2m (cattle (Holstein) | bovine) (UniProt P01888); assay: scintillation proximity assay
[2] = biological target: BoLA-3*00101 (AW10) heavy chain folded with 125I-radiolabeled bovine met-β2m (cattle (Boran) | bovine) (UniProt P01888); assay: scintillation proximity assay
[3] = biological target: BoLA-1*02301 (D18.4) heavy chain folded with recombinant human β2m (cattle (Holstein) | human) (UniProt P61769); assay: AlphaScreen or HTRF
[4] = biological target: BoLA-3*00201 (JSP.1) heavy chain folded with recombinant human β2m (cattle (Holstein) | human) (UniProt P61769); assay: AlphaScreen or HTRF
[5] = biological target: BoLA-2*01201 (T2A) heavy chain folded with 125I-radiolabeled bovine met-β2m (cattle (Holstein) | bovine) (UniProt P01888); assay: scintillation proximity assay
[6] = biological target: BoLA-1*02301 (D18.4) heavy chain folded with 125I-radiolabeled bovine met-β2m (cattle (Holstein) | bovine) (UniProt P01888); assay: scintillation proximity assay
[7] = biological target: BoLA-2*01201 (T2A) heavy chain folded with recombinant human β2m (cattle (Holstein) | human) (UniProt P61769); assay: AlphaScreen or HTRF
[8] = biological target: BoLA-T2C heavy chain folded with recombinant human β2m (cattle (Bos taurus×Bos indicus) | human) (UniProt P61769); assay: AlphaScreen or HTRF

Tp4 328–336 epitope … (peptide)
half-life of the pBoLA-I complex [1]: 2 h | half-life of the pBoLA-I complex [2]: 23 h

Ta9 epitope […] (peptide)
Kd [3]: 74 nM | Kd [4]: 309 nM

Tp2 98–106 epitope […] (peptide)
half-life of the pBoLA-I complex [5]: 3 h

Tp5 87–95 epitope … (peptide)
half-life of the pBoLA-I complex [6]: 18 h

Tp9 199–228 epitope […] (peptide)
half-life of the pBoLA-I complex [6]: 4 h

Tp8 379–387 epitope […] (peptide)
half-life of the pBoLA-I complex [1]: 2 h | half-life of the pBoLA-I complex [2]: 14 h

Tp2 49–59 epitope […] (peptide)
EC50 [7]: 364 nM | half-life of the pBoLA-I complex [5]: 2 h

Tp2 96–104 epitope […] (peptide)
EC50 [8]: 144 nM | EC50 [4]: 767 nM | half-life of the pBoLA-I complex [1]: 4 h
